We go through 4 molecules from patent publication US20240016931A1 (JIANGSU HENGRUI PHARMACEUTICALS, published 2024).

Experiment [1] concerns the target T1, His-tagged human TSLP antigen (huTSLP-his) (human).
T1 construct: Secreted from HEK293E and purified on nickel; whole entry named; also called Human TSLP-his
Put plainly: ELISA on human TSLP. On the technique in general: In an ELISA, binding on a coated surface is turned into a signal by an enzyme label.

Experiment [2] concerns the target T1, His-tagged human TSLP antigen …. Put plainly: Biacore T200, antibody captured on Protein A chip, antigen in flow, 1:1 Langmuir. In general terms: SPR reads the build-up and loss of mass on a sensor chip optically.
The target of experiment [3] is T2, His-tagged cynomolgus monkey TSLP antigen (cynoTSLP-His) (cynomolgus monkey).
T2 construct: whole entry named
T2 chain: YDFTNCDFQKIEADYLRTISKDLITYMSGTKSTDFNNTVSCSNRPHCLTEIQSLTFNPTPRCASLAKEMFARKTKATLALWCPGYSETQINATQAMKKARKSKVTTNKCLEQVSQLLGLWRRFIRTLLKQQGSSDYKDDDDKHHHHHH
The experiment is described as above.

Experiment [4] has as its target T1, His-tagged human TSLP antigen …. Put plainly: ELISA, coated huTSLP-his.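 Note: binding of antibodies to plate-bound TSLP read as absorbance at 450 nm after TMB colour development, EC50 derived from binding curves.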
Experiment [5] concerns the target T3, Fc-tagged human TSLP antigen (huTSLP-Fc) (human, biotin-labeled in the blocking assays).
T3 construct: whole entry named; also called recombinant human TSLP-Fc
Put plainly: competition ELISA: biotin-huTSLP-Fc binding to coated human-TSLPR-Fc-ECD.

In experiment [6] the target is T4, native TSLP (human, UniProt Q969D9 29-159). Put plainly: cell-based or functional assay.
The target of experiment [7] is T3, Fc-tagged human TSLP antigen (huTSLP-Fc). Put plainly: competition FACS: biotin-TSLP-Fc binding to CHOK1-TSLPR/IL-7R cells.
Experiment [8] shares this target. Put plainly: cell-based or functional assay.
The target is the same in experiment [9]. Put plainly: competition ELISA: plate coated with human-TSLPR-Fc-ECD, biotin-labeled huTSLP-Fc premixed with the antibody dilution series, streptavidin-peroxidase detection, OD450; blocked ligand-receptor pair is TSLP and TSLPR.
The target of experiment [10] is T1, His-tagged human TSLP antigen …. Put plainly: Biacore (SPR).
The target of experiment [11] is T4, native TSLP. Put plainly: cell-based or functional assay. The source holds these as a separate data set.

B1: hu3-11 (antibody, human IgG1, kappa, V domains shown)
VH: EVQLVQSGAEVKKPGASVKVSCKASGYTFTDDYMNWVRQAPGQRLEWMGIISPYNGGTSYNQKFKGRVTLTVDKSASTAYMELSSLRSEDTAVYYCAREDYDYDGYAMDYWGQGTTVTVSS
VL: EIVLTQSPATLSLSPGERATLSCRASSSVSYMHWYQQKPGQAPRPWIYATSNLASGVPARFSGSGSGTSYTLTISRLEPEDFAVYYCQQWSSDRTFGGGTKVEIKR
notes: IgG1-YTE, kappa; also called hu3VH2-H110Y + hu3VL4-N93D
As for B1, the binding result in experiment [1] was “binds”.

B2: hu3-13 (antibody, human IgG1, kappa, V domains shown)
VH: EVQLVQSGAEVKKPGASVKVSCKASGYTFTDDYMNWVRQAPGQRLEWMGIISPYNGGTSYNQKFKGRVTLTVDKSASTAYMELSSLRSEDTAVYYCAREDYDYDGYAMDYWGQGTTVTVSS
VL: EIVLTQSPATLSLSPGERATLSCRASSSVSYMHWYQQKPGQAPRPWIYATSNLASGVPARFSGSGSGTSYTLTISRLEPEDFAVYYCQQSDSGREFGGGTKVEIKR
notes: IgG1-YTE, kappa; also called hu3VH2-H110Y + hu3VL6
By Kd is commonly meant the free concentration of one partner at which half of the binding sites on the other are occupied at equilibrium, for simple one-to-one binding. Broadly, the EC50 is the midpoint of the concentration-response curve. As usually defined, the IC50 is the concentration needed to halve the response being measured. For B2, the results for the Kd in experiment [2] and in experiment [3] were 0.001 nM and 0.34 nM, respectively. A half-maximal response in [4] (EC50) required 0.148 nM. Moreover, the IC50 in [5] came to 0.497 nM; in [7], 0.133 nM. Also, the “IC50 (nM), inhibition of native TSLP-induced proliferation of BaF3-TLSPR/IL-7R cells” value in the experiment with native TSLP [6] turned out to be 0.289 nM. In addition, in [8], the “IC50 (nM), inhibition of TSLP-induced proliferation of BaF3 cells overexpressing TSLPR/IL-7R” value worked out at 0.444 nM.

B3: AMG157 (tezepelumab, anti-TSLP antibody) (antibody, human IgG2, lambda, V domains shown)
VH: QMQLVESGGGVVQPGRSLRLSCAASGFTFRTYGMHWVRQAPGKGLEWVAVIWYDGSNKHYADSVKGRFTITRDNSKNTLNLQMNSLRAEDTAVYYCARAPQWELVHEAFDIWGQGTMVTVSS
VL: SYVLTQPPSVSVAPGQTARITCGGNNLGSKSVHWYQQKPGQAPVLVVYDDSDRPSWIPERFSGSNSGNTATLTISRGEAGDEADYYCQVWDSSSDHVVFGGGTKLTVLG
notes: positive control
On to B3, for which the Kd came out at 0.00812 nM in experiment [2], 0.00922 nM in experiment [3] and 0.00812 nM in [10]. The “IC50 (read off the curve)” value in [9] was ~0.5 nM. In experiment [4], this molecule yielded an EC50 of 0.722 nM. In [7], this molecule showed an IC50 of 0.207 nM. Besides, the “IC50 (nM), inhibition of TSLP-induced proliferation of BaF3 cells overexpressing TSLPR/IL-7R” value in experiment [8] came to 0.573 nM.

B4: hu179-33 (antibody, human IgG1, kappa, V domains shown)
VH: EVQLVQSGAEVKKPGSSVKVSCKASGYTFSNYLIEWVRQAPGQGLEWIGVIDPGVGDTNYNENFKGRATLTADKSTSTAYIELSSLRSEDTAVYYCAREDNTGTAFDYWGQGTTVTVSS
VL: SIVMTQTPLSLSVTPGQPASISCKASQSVSSDVTWYLQKPGQSPQLLIYYVSEHYTGVPDRFSGSGYGTDFTLKISRVEAEDVGVYYCQQHHRFPLTFGQGTKLEIKR
notes: IgG1-YTE, kappa; also called hu179VH3-N55V + hu179VL8-N53E
For the molecule B4, the Kd in experiment [2] came to 0.000903 nM; in experiment [3] it was 0.0304 nM; in [10], 0.000903 nM. The values for the IC50 in experiment [5] and in experiment [7] were 0.504 nM and 0.187 nM, respectively. For the same molecule, the “IC50 (nM), inhibition of native TSLP-induced proliferation of BaF3-TLSPR/IL-7R cells” value with native TSLP [6] was 0.0228 nM. For the same molecule, the “activity in inhibiting native TSLP-stimulated proliferation of BaF3, relative to AMG157” value in the experiment with native TSLP [11] came out at 100 times. Further, in [8], the “IC50 (nM), inhibition of TSLP-induced proliferation of BaF3 cells overexpressing TSLPR/IL-7R” value stood at 0.409 nM.
